First the molecules themselves.
B2: Fc-TEM1 (soluble recombinant endosialin: full-length TEM1 extracellular domain fused to monomeric murine IgG2b Fc) (Fc fusion, human)
chain: QDPWAAEPRAACGPSSCYALFPRRRTFLEAWRACRELGGDLATPRTPEEAQRVDSLVGAGPASRLLWIGLQRQARQCQLQRPLRGFTWTTGDQDTAFTNWAQPASGGPCPAQRCVALEASGEHRWLEGSCTLAVDGYLCQFGFEGACPALQDEAGQAGPAVYTTPFHLVSTEFEWLPFGSVAAVQCQAGRGASLLCVKQPEGGVGWSRAGPLCLGTGCSPDNGGCEHECVEEVDGHVSCRCTEGFRLAADGRSCEDPCAQAPCEQQCEPGGPQGYSCHCRLGFRPAEDDPHRCVDTDECQIAGVCQQMCVNYVGGFECYCSEGHELEADGISCSPAGAMGAQASQDLGDELLDDGEDEEDEDEAWKAFNGGWTEMPGILWMEPTQPPDFALAYRPSFPEDREPQIPYPEPTWPPPLSAPRVPYHSSVLSVTRPVVVSATHPTLPSAHQPPVIPATHPALSRDHQIPVIAANYPDLPSAYQPGILSVSHSAQPPAHQPPMISTKYPELFPAHQSPMFPDTRVAGTQTTTHLPGIPPNHAPLVTTLGAQLPPQAPDALVLRTQATQLPIIPTAQPSLTTTSRSPVSPAHQISVPAATQPAALPTLLPSQSPTNQTSPISPTHPHSKAPQIPREDGPSPKLALWLPSPAPTAAPTALGEAGLAEHSQRDDRWLDDDD
notes: extracellular domain; Monomeric secreted fusion protein made in CHO cells; also called TEM1-Fcγ; not shown: murine IgG2b Fcγ domain (hinge through CH3), modified: the four cysteine residues responsible for inter-heavy chain disu

Assay [1] concerns the target B2. In words: ELISA on coated FN fragments (FIG. 7A). In general terms: ELISA stands for enzyme-linked immunosorbent assay.
For assay [2], the target named is T1, 120 kDa fibronectin fragment containing the cell attachment domain (UniProt P02751-1 722-1635, limits assumed).
T1 construct: domain: 120 kDa fragment containing the cell attachment domain; Bought fragment; also called the 120 kDa fragment; 120 kDa cell attachment FN-fragment
T1 sequence (P02751 other isoform, or with tags, fused parts or gaps limits assumed): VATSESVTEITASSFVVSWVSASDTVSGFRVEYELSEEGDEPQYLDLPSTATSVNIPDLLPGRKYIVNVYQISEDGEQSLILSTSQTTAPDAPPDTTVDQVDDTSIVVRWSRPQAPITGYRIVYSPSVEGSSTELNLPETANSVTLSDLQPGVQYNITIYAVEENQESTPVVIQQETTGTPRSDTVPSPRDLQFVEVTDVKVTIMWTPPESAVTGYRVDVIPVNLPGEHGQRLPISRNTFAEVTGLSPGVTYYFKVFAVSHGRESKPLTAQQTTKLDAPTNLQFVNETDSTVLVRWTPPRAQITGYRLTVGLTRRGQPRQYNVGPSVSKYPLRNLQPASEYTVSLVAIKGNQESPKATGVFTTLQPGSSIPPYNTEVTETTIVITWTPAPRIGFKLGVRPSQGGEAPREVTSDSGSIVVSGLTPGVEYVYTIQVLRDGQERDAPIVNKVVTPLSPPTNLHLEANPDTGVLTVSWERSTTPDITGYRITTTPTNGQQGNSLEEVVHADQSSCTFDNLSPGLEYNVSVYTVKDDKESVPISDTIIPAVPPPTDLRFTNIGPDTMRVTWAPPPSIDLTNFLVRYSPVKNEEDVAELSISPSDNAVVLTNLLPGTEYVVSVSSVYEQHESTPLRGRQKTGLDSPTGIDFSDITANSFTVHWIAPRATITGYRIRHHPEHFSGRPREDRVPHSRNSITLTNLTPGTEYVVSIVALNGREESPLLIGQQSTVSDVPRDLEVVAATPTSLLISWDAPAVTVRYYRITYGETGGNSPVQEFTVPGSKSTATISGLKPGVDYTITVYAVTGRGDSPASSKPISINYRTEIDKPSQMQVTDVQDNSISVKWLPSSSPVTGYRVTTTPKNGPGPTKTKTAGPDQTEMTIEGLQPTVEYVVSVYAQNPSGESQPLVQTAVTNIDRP
As to the kind of experiment: ELISA on coated FN fragments (FIG. 7A).

The target in assay [3] is B2. As to the kind of experiment: antigen-specific ELISA, coated at 0.2 ug/ml (FIG. 4B).
The target of assay [4] is B2. In words: antigen-specific ELISA, coated at 2 ug/ml (FIG. 4B).
In assay [5] the target is T2, murine TEM-1 (in mouse 2H11 cells) (mouse, UniProt Q91V98 18-765).
T2 construct: Endogenous protein in lysate of mouse 2H11 cells, on a Western blot; also called murine endosialin
T2 sequence: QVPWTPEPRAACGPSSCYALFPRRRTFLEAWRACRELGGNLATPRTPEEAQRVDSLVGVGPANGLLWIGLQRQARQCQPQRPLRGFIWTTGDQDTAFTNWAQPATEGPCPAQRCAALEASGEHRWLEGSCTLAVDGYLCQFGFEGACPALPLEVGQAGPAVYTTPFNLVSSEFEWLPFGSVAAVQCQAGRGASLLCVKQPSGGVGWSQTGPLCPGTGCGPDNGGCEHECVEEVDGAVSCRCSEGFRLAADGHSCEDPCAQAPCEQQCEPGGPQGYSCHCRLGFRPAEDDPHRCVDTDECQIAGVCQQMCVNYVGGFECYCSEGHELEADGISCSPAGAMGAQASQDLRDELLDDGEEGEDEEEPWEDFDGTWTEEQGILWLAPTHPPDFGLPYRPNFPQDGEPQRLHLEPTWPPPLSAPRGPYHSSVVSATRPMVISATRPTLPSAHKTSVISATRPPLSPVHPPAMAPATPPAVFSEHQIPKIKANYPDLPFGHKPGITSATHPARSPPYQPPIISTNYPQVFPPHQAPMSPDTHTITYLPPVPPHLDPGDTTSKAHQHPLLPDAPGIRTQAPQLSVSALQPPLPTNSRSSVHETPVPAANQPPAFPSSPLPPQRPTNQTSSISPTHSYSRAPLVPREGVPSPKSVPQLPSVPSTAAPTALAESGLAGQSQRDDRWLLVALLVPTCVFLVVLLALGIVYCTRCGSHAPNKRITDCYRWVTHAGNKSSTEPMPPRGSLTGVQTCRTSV
In words: Western blot of cell lysates (FIG. 15).

Consider six molecules from patent US20080248034A1 (MORPHOTEK, published 2008).

B1: recombinant human fibronectin fragment 2 (Fn2) (other)
chain: SSSGPVEVFITETPSQPNSHPIQWNAPQPSHISKYILRWRPKNSVGRWKEATIPGHLNSYTIKGLKPGVVYEGQLISIQQYGHQEVTRFDFTTTSTSTPVTSNTVTGETTPFSPLVATSESVTEITASSFVVSWVSASDTVSGFRVEYELSEEGDEPQYLDLPSTATSVNIPDLLPGRKYIVNVYQISEDGEQSLILSTSQTTAPDAPPDPTVDQVDDTSIVVRWSRPQAPITGYRIVYSPSVEGSSTELNLPETANSVTLSDLQPGVQYNITIYAVEENQESTPVVIQQETTGTPRSDTVPSPRDLQFVEVTDVKVTIMWTPPESAVTGYRVDVIPVNLPGEHGQRLPISRNTFAEVTGLSPGVTYYFKVFAVSHGRESKPLTAQQTTKLDAPTNLQFVNETDSTVLVRWTPPRAQITGYRLTVGLTRRGQPRQYNVGPSVSKYPLRNLQPASEYTVSLVAIKGNQESPKATGVFTTLQPGSSIPPYNTEVTETTIVITWTPAPRIGFKLGVRPSQGGEAPREVTSDSGSIVVSGLTPGVEYVYTIQVLRDGQERDAPIVNKVVTPLSPPTNLHLEANPDTGVLTVSWERSTTPDITGYRITTTPTNGQQGNSLEEVVHADQSSCTFDNLSPGLEYNVSVYTVKDDKESVPISDTIIP
notes: Bought (R&D Systems)
Take B1: the binding result in assay [1] is “no binding (tested: 1.25 ug/ml)”.

In the case of B2, the binding result in assay [2] is “no binding (tested: 1.25 ug/ml)”.

B3: recombinant human fibronectin fragment 4 (Fn4) (other)
chain: VTDATETTITISWRTKTETITGFQVDAVPANGQTPIQRTIKPDVRSYTITGLQPGTDYKIYLYTLNDNARSSPVVIDASTAIDAPSNLRFLATTPNSLLVSWQPPRARITGYIIKYEKPGSPPREVVPRPRPGVTEATITGLEPGTEYTIYVIALKNNQKSEPLIGRKKTDELPQLVTLPHPNLHGPEILDVPSTVQKTPFVTHPGYDTGNGIQLPGTSGQQPSVGQQMIFEEHGFRRTTPPTTATPIRHRPRPYPPNVGEEIQIGHIPREDVDYHLYPHGPGLNPNASTGQEALSQTTISWAPFQDTSEYIISCHPVGTDEEPLQFRVPGTSTSATLTGLTRGATYNIIVEALKDQQRHKVREEVVTVGNSVNEGLNQPTDDSCFDPYTVSHYAVGDEWERMSESGFKLLCQCLGFGSGHFRCDSSRWCHDNGVNYKIGEKWDRQGENGQMMSCTCLGNGKGEFKCDPHEATCYDDGKTYHVGEQWQKEYLGAICSCTCFGGQRGWRCDNCRRPGGEPSPEGTTGQSYNQYSQRYHQRTNTNVNCPIECFMPLDVQADREDSRE
notes: Bought (R&D Systems)
For the molecule B3, the binding result in assay [1] was “no binding (tested: 1.25 ug/ml)”.

B4: human mesothelin (other, UniProt Q13421 296-598, looked up)
chain: EVEKTACPSGKKAREIDESLIFYKKWELEACVDAALLATQMDRVNAIPFTYEQLDVLKHKLDELYPQGYPESVIQHLGYLFLKMSPEDIRKWNVTSLETLKALLEVNKGHEMSPQVATLIDRFVKGRGQLDKDTLDTLTAFYPGYLCSLSPEELSSVPPSSIWAVRPQDLDTCDPRQLDVLYPKARLAFQNMNGSEYFVKIQSFLGGAPTEDLKALSQQNVSMDLATFMKLRTDAVLPLTVAEVQKLLGPHVEGLKAEERHRPVRDWILRQRQDDLDTLGLGLQGGIPNGYLVLDLSMQEALS
B4: in assay [3], the binding result is reported as “no binding (tested: 5, 10, 50 ug/ml)”.

B5: ovalbumin (OVA) (other, UniProt P01012 2-386, looked up)
chain: GSIGAASMEFCFDVFKELKVHHANENIFYCPIAIMSALAMVYLGAKDSTRTQINKVVRFDKLPGFGDSIEAQCGTSVNVHSSLRDILNQITKPNDVYSFSLASRLYAEERYPILPEYLQCVKELYRGGLEPINFQTAADQARELINSWVESQTNGIIRNVLQPSSVDSQTAMVLVNAIVFKGLWEKAFKDEDTQAMPFRVTEQESKPVQMMYQIGLFRVASMASEKMKILELPFASGTMSMLVLLPDEVSGLEQLESIINFEKLTEWTSSNVMEERKIKVYLPRMKMEEKYNLTSVLMAMGITDVFSSSANLSGISSAESLKISQAVHAAHAEINEAGREVVGSAEAGVDAASVSEEFRADHPFLFCIKHIATNAVLFFGRCVSP
As for B5, the binding result in assay [4] is listed as “no binding (tested: 5, 10, 50 ug/ml)”.

B6: M4.1 (humanized antibody to human endosialin) (antibody, human IgG1, kappa)
heavy: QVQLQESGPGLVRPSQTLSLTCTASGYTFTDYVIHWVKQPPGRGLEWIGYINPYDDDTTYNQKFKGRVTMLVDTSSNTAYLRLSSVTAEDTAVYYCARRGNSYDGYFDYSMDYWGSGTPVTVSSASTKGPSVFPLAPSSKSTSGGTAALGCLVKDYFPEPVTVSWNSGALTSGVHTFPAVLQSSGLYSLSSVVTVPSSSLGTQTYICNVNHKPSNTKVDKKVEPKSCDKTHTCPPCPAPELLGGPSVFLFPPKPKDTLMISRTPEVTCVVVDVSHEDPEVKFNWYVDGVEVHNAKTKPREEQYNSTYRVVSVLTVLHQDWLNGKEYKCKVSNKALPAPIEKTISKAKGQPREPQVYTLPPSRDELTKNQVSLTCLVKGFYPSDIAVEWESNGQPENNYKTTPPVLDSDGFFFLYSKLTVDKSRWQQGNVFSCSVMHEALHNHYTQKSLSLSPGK
light: DIQMTQSPSSLSASVGDRVTITCRASQNVGTAVAWLQQTPGKAPKLLIYSASNRYTGVPSRFSGSGSGTDYTFTISSLQPEDIATYYCQQYTNYPMYTFGQGTKVQIKRTVAAPSVFIFPPSDEQLKSGTASVVCLLNNFYPREAKVQWKVDNALQSGNSQESVTEQDSKDSTYSLSSTLTLSKADYEKHKVYACEVTHQGLSSPVTKSFNRGEC
notes: also called antibody M4.1
As for B6, the binding result in assay [5] was “no binding (tested: 3.3 ug/mL)”.
